Measurements published in IntAct's records for PubMed 28683311.

How the values were obtained:
[1] = target: limd1_human LIMD1 (UniProt Q9UGP4)
[2] = target: tnr6a_human TNRC6A (UniProt Q8NDV7)
[3] = target: limd1_human LIMD1 (UniProt Q9UGP4); remark: listed apart in the source
[4] = target: limd1_human LIMD1 (UniProt Q9UGP4); remark: listed apart in the source

limd1_human LIMD1, sequence (Q9UGP4 whole entry): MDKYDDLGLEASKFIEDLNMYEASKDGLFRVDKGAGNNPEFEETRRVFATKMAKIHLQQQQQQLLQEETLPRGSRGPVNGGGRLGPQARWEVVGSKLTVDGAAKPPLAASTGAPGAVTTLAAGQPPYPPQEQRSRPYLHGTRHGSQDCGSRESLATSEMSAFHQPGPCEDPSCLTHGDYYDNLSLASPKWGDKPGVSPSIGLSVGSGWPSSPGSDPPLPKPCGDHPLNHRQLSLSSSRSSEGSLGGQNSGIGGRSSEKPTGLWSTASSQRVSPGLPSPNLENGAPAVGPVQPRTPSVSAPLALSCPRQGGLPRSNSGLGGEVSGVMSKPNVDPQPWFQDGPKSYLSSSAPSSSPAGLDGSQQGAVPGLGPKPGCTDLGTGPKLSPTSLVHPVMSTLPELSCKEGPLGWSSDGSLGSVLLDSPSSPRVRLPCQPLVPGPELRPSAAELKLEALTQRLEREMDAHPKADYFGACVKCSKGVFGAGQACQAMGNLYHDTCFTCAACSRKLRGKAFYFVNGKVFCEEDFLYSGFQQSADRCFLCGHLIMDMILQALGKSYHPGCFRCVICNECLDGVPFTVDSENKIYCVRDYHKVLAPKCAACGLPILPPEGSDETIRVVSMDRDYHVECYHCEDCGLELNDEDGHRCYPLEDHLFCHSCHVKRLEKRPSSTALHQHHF
tnr6a_human TNRC6A, sequence (Q8NDV7 whole entry): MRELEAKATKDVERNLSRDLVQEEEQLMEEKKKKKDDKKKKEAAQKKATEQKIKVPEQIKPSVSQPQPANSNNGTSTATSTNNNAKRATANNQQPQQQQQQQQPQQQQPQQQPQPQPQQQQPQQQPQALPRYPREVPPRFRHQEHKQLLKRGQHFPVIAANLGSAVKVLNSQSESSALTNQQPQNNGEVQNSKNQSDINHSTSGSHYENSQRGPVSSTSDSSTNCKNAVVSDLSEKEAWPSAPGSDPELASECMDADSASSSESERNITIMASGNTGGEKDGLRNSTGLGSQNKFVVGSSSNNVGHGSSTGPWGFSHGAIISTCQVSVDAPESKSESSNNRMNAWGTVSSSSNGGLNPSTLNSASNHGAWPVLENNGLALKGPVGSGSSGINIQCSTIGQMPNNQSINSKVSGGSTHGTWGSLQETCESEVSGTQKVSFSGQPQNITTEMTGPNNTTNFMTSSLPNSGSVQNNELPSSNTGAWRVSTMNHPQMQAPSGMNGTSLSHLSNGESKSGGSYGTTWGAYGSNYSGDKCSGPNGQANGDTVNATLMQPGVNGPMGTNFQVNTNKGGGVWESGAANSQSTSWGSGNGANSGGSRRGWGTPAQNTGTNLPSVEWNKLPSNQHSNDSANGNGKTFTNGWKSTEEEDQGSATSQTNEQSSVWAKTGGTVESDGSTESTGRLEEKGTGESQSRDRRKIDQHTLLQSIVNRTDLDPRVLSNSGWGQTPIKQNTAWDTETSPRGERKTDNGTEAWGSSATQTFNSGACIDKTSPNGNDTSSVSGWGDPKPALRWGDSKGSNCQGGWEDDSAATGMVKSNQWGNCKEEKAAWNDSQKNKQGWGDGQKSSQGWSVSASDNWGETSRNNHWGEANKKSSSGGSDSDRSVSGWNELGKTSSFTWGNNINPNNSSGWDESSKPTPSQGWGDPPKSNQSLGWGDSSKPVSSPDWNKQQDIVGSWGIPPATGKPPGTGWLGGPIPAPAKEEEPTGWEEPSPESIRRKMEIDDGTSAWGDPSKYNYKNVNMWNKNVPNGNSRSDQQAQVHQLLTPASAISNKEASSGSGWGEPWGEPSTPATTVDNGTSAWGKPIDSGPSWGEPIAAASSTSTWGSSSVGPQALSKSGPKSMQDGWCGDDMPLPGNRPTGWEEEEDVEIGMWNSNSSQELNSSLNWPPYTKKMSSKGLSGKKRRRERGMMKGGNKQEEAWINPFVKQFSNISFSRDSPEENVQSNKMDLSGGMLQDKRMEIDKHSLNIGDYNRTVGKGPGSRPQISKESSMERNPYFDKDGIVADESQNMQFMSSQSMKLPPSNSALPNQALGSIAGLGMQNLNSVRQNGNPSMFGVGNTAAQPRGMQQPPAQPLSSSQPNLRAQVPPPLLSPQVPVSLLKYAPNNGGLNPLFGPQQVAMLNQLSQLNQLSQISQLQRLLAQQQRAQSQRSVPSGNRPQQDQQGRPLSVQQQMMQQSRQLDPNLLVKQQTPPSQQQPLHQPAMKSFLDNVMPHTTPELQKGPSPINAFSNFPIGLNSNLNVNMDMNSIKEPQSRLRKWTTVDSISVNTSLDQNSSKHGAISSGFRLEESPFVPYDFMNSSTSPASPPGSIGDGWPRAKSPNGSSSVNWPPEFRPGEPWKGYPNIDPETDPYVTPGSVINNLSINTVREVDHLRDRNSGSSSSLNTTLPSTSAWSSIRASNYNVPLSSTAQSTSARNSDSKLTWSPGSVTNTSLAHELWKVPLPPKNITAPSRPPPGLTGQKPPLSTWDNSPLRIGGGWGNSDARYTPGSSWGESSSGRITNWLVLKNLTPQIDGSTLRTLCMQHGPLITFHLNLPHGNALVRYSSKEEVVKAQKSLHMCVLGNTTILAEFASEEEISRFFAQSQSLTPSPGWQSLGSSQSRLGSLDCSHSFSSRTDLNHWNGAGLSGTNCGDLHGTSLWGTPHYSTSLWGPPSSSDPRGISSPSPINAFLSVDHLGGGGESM

Substance | effect of a mutation on the interaction [1] | effect of a mutation on the interaction [2] | effect of a mutation on the interaction [3] | effect of a mutation on the interaction [4]
Protein argonaute-2 (Homo sapiens), Q9UKV8 S387A | decreasing interaction strength | with no effect |  | 
Protein argonaute-2 (Homo sapiens), Q9UKV8 S387E | increasing interaction strength |  | with no effect | 
Protein argonaute-4 (Homo sapiens) (from UniProt Q9HCK5) S377A |  |  |  | decreasing interaction strength
Protein argonaute-4 (Homo sapiens) (from UniProt Q9HCK5) S377E |  |  |  | with no effect
